From US20110206702A1 (Genentech, published 2011)

T1: TAT419 polypeptide (human, UniProt P24530 27-442)
T1 construct: Full-length TAT419 on transfected cells (e.g. 293 cells) or on TAT419-expressing human melanoma cell lines; also called full-length TAT419 polypeptide; cell surface expressed TAT419 polypeptide
T1 sequence: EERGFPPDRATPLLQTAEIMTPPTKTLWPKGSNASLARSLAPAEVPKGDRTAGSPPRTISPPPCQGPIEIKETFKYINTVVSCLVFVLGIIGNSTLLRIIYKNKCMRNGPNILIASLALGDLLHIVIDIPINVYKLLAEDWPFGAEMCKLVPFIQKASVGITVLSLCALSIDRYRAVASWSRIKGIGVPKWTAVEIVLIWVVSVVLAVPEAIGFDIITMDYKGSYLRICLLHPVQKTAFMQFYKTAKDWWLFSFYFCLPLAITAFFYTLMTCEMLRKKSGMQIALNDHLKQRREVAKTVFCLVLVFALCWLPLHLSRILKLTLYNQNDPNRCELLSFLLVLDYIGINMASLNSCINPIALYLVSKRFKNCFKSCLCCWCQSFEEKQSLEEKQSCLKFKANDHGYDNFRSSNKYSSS


Biological target: T1, TAT419 polypeptide
Test: Western blots, TAT419-derived peptide variants expressed in 293 cells
Experimental: Binding analysis was also conducted to identify the approximate location of the epitopes. Several TAT419-derived peptide variants were expressed in 293 cells. Western blots were carried out using various of the murine anti-TAT419 monoclonal antibodies described herein.

Row | binding result | Binder
1 | binds | humanized anti-TAT419 antibody hu5E9.v1 (antibody, human IgG1, kappa, V domains shown) VH: EVQLVESGGGLVQPGGSLRLSCAASGYTFTSYWMQWVRQAPGKGLEWIGTIYPGDGDTSYAQKFKGRATLSTDKSKNTAYLQMNSLRAEDTAVYYCARWGYAYDIDNWGQGTLVTVSS VL: DIQMTQSPSSLSASVGDRVTITCKSSQSLLDSDGKTYLNWLQQKPGKAPKRLIYLVSKLDSGVPSRFSGSGSGTDFTLTISSLQPEDFATYYCWQGTHFPYTFGQGTKVEIKR
2 | binds | murine anti-TAT419 monoclonal antibody 5E9 (antibody, mouse IgG2a, kappa, V domains shown, also called murine 5E9) VH: QVQLLQSGAELARPGASVKLSCKASGYTFTSYWMQWVKQRPGQGLEWIGTIYPGDGDTSYAQKFKGKATLTTDKYSSTAYMQLSSLASEDSAVYYCARWGYAYDIDNWGQGTTVTVSS VL: not shown
